{"source": "paper PMC6016246", "about": "“Cytokinin Signaling in Mycobacterium tuberculosis” (mBio, 2018)", "binders": {"B1": {"name": "23-mer operator duplex (dsDNA)", "DNA 1": "TTTACAAGCAGACTGCCGGTAAC", "DNA 2": "GTTACCGGCAGTCTGCTTGTAAA"}, "B2": {"name": "+13/-8 DNA probe (ITC) (dsDNA)", "DNA 1": "TTACAAGCAGACTGCCGGTAA", "DNA 2": "TTACCGGCAGTCTGCTTGTAA"}, "B3": {"name": "Rv0078-His6 (TetR-like transcriptional repressor Rv0078) (natural protein)", "chain": "MEIKRRTQEERSAATREALITGARKLWGLRGYAEVGTPEIATEAGVTRGAMYHQFADKAALFRDVVEVVEQDVMARMATLVAASGAATPADAIRAAVDAWLEVSGDPEVRQLILLDAPVVLGWAGFRDVAQRYSLGMTEQLITEAIRAGQLARQPVRPLAQVLIGALDEAAMFIATADDPKRARRETRQVLRRLIDGMLNG", "notes": "also called LoaR; EthR2; not shown: His6, C-terminal, kept"}}, "key": {"Rv0078 [1]": {"biological_target": "T1, Rv0078 (Mycobacterium tuberculosis, UniProt O53623 1-201)", "T1 sequence": "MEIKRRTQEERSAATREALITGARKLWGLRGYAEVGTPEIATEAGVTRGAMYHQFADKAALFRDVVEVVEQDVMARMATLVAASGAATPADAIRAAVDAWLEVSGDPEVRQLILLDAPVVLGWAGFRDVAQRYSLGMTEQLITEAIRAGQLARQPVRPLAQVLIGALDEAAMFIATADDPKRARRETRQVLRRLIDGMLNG", "experiment": "crystal structure; […], room temperature 30 min; […], buffer not stated", "conditions": "protein: recombinant; tags: C-terminal His6; chain copies: 4; blunt"}, "Rv0078 [2]": {"biological_target": "T1, Rv0078", "experiment": "ITC; […], room temperature 30 min; […], buffer not stated", "conditions": "protein: recombinant; tags: C-terminal His6; chain copies: 4"}, "[3]": {"biological_target": "the molecule itself", "experiment": "crystal structure; DNA-free Rv0078, C2 space group crystals, sitting-drop vapor diffusion at 20°C, 0.1 M sodium cacodylate pH 6.4, 1.3 M lithium sulfate; 1.85 Å"}}, "data": [{"binder": "B1", "values": [{"measurement": "binding result", "setting": "Rv0078 [1]", "value": "binds"}]}, {"binder": "B2", "values": [{"measurement": "Kd", "setting": "Rv0078 [2]", "value": 357, "unit": "nM"}]}, {"binder": "B3", "values": [{"measurement": "stoichiometry N", "setting": "[3]", "value": 2}]}]}
